Measurements published in patent US20240240209A1, “SYNTHESIS OF ENANTIOPURE CIS-A-IRONE FROM A RENEWABLE CARBON SOURCE” (Agency for Science, Technology and Research, priority 2021, published 2024).
Entries after “also recorded” stand apart in the source; their conditions may differ.

How the values were obtained:
[1] = Cell lysate reaction of pMT enzymes with psi-ionone, irones quantified by HS-SPME-GCMS; assay type: biochemical; settings: for fold change in cis-α-irone produced: AUC vs non-mutated (=1)
How it was run: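 pMT1 site-saturation mutants were expressed in E. coli BL21(DE3) and lysed, and lysates were incubated 2 days at 28 °C with 0.2 mM SAM and 10 mg/L psi-ionone (plus caryophyllene) in 50 mM Tris pH 7, 10 mM MgCl2. Cis-α-irone was measured by HS-SPME-GCMS peak area and given as fold change over non-mutated enzyme.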

[2] = Stability of pMT7 (native PAGE, pre-incubation at 28° C.); settings: incubating or reacting at 28° C. overnight
Method: (28 C) or 4° C. (4 C). […] All the data shown is an average of replicate reaction.
The steady-state kinetic parameters of pMT7 were determined (Table 3). […] While determining the steady-state kinetics of pMT7, it was noticed that the reaction with purified pMT7 stopped at 6 h before significant conversion had taken place (FIG. 15a). Moreover, while using cell extracts containing pMT7, the reaction reached a plateau after 1-day incubation (FIG. 15b). […] Since pMT7 is an hexamer in solution^10, its oligomeric state before and after the reaction was examined. […] (28 C) overnight as compared to 4° C. […] It was further tested if the enzyme was subject to feedback inhibition, as the cofactor product SAH is a potent inhibitor of methyltransferases^12.

B1: pMT7: pMT1 with Y200F S182E L273V L180A A202L Y65F (protein)
chain: MPQEARTPQQQVTADEVGDWYDKFGEVYHLTLGESVHCGLWFPPDAPVPQDMELVTMSSQAQDRFTDYLIETLDPKAGQHLLDIGCGTGRTALKAARQRGIAVTGVAVSKEQIAAANRLAAGHGLTERLTFEVADAMRLPYEDESFDCAWAIESLCHMDRAKALGEAWRVLKPGGDLLVAEEVVTEELTEPETALFETLFALNVPPRLGEFFDIVSGAGFHTLSLKDLSANLAMTMNVFALGVYSRRAEFTERFGAEFVDGLLAGLGSAQETVIRKTRFFMATLRKPAV
modifications: Modified from pMT1
notes: pMT1 with Y200F S182E L273V L180A A202L Y65F
With B1 the cis-α-irone production ([1]; higher as compared to pMT1) was 2,450 fold, the “fold change in cis-α-irone produced” value ([1]; pMT6_Y65 mutants) was 1.4 and the “fold change in cis-α-irone produced” value ([1]; pMT7_T91 mutants) was 1.0. The “improvement of total turnover number (TTN)” value ([1]; vs pMT1, TTN = cis-α-irone produced / soluble pMT enzyme) was 2,000 fold and the stability of enzyme [2] was “remained intact as hexamer; also recorded: stable under the reaction temperature”.
